This note sets out measurements from patent US20140087995A1 (published 2014).

Experiment [1] deals with T1, human amylin receptor (amylin 3(a) receptor: human calcitonin receptor with RAMP-3) (human, UniProt P30988 25-474; O60896 24-148, limits assumed).
T1 construct: whole, on cells; Whole cells in the luciferase assay (Assay II a); also called hAmylin-R; hAmylinR
T1 sequence (looked up) 1: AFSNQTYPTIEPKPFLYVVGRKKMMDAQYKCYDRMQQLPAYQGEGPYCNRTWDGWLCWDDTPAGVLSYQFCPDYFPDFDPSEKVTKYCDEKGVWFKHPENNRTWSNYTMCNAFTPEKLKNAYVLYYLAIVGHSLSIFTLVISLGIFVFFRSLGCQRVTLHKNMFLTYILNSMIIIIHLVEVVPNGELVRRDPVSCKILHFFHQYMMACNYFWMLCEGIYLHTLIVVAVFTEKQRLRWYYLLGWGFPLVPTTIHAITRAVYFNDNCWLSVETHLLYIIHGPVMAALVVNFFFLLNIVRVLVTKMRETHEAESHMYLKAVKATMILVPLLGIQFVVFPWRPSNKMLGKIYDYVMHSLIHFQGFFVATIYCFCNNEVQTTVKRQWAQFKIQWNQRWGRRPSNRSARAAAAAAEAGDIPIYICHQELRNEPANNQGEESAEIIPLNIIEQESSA
T1 sequence (looked up) 2: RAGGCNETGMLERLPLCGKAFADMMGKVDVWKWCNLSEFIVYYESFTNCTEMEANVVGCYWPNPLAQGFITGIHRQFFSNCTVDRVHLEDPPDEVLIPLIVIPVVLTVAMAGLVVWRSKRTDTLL
Put plainly: SPA competition binding on membranes of BHK cells with human calcitonin receptor + RAMP-3; displacement of 125I-rat amylin (Assay V). How it is done: The binding assay was performed using scintillation proximity assay (SPA) beads (RPNQ0001) from PerkinElmer and cell membranes from the Amylin 3(a)/CRE-luc cells (as described in Assay (II)) were used. Membranes were prepared in the following way; the cells were rinsed with PBS and incubated with Versene for approximately 5 min before harvesting. The cells were flushed with PBS and the cell-suspension was centrifuged for 5 min at 1000 rpm. Cells were homogenized (ultrathurrax) in a buffer containing 20 mM Na-HEPES and 10 mM EDTA (pH 7.4) and centrifuged at 20.000 rpm for 15 min. The resulting pellet was resuspended, homogenized and centrifuged (20.000 rpm, 15 min) in a buffer containing 20 mM Na-HEPES and 0.1 mM EDTA (pH 7.4, buffer 2). The resulting pellet was resuspended in buffer 2 and protein concentration was measured (BCA protein Assay, Pierce). The homogenate was kept cold during the whole procedure. The membranes were kept at −80° C. until use. The assay was performed in a 384 well Optiplate (PerkinElmer) in a total volume of 40 ul. Membranes were mixed with SPA beads. Final concentration of membranes 35 ng/μL final and SPA beads was 0.05 mg/well. Test-compounds were dissolved in DMSO and further diluted in assay buffer (50 mM Hepes, pH 7.4, 1 mM CaCl2, 5 mM MgCl₂, 0.1% OA and 0.02% Tween20). […] The final mixture was incubated with shaking at 400 rpm for 120 min at 25° C. prior to centrifugation (1500 rpm, 10 min). Samples were analyzed on TopCounter™ (Packard). The IC₅₀ was calculated using (one site binding competition analysis) GraphPad Prism5 as a measure of receptor affinity.
In general terms: Displacement assays read how much labelled ligand stays bound in the presence of the test substance.

The target of experiment [2] is T2, human calcitonin receptor (human, UniProt P30988 25-474).
T2 sequence (looked up): T1 sequence (looked up) 1
Put plainly: cell-based or functional assay.

Experiment [3] has as its target T3, human calcitonin receptor (human, UniProt P30988 25-474).
T3 construct: whole, on cells; Membranes of BHK cells stably transfected with the human calcitonin receptor (Assay VII); also called hCTR; hCT
T3 sequence (looked up): T1 sequence (looked up) 1
Kind of experiment: ratio of IC50 at hCTR over IC50 at hAmylin-R (SPA competition assays). In outline: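 Scintillation proximity competition binding on cell membranes at 35 ng/μL with SPA beads, in 50 mM Hepes pH 7.4, 1 mM CaCl2, 5 mM MgCl₂, 0.1% OA, 0.02% Tween20. Incubated 120 min at 25° C with shaking. IC₅₀ from one-site competition fit.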

Experiment [4] concerns the target T3, human calcitonin receptor. Put plainly: SPA competition against 125I-calcitonin, membranes of BHK cells with human calcitonin receptor (Assay VII). In outline: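 BHK hCTR membranes 35 ng/μL + SPA beads 0.05 mg/well; buffer 50 mM Hepes pH 7.4, 1 mM CaCl2, 5 mM MgCl₂, 0.1% OA, 0.02% Tween20. 120 min, 25° C., shaking. Scintillation count; IC50 by one-site binding competition.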

Numbered stars: 1 amine (or outer) side, 2 acyl side, 3 side chain; on linkers, the order of the positions; unused ones are H or OH. Bridge positions count the residues as written; N and C are the ends. Side chains are listed from the residue outwards. Ends that are not written are not given here. * marks the point of attachment. C20 diacid = O=C(O)CCCCCCCCCCCCCCCCCCC(=O)*; γGlu = O=C(O)[C@H](CCC(=O)[*:2])N[*:1]; AEEA = NCCOCCOCC(=O)O

B1: N^ε1-[2-[2-[2-[[(4S)-4-carboxy-4-(19-carboxynonadecanoylamino)butanoyl]amino]ethoxy]ethoxy]acetyl]-[Arg17,Pro21,Pro27,Arg35]-h-amylin (peptide)
peptide: K([AEEA-γGlu-C20 diacid])CNTATCATQRLANFLRHSSPNFGAIPSSTNVGSRTY-NH2
modifications: disulfide 2-7; N-terminus assumed
SMILES: CC[C@H](C)[C@H](NC(=O)[C@H](C)NC(=O)CNC(=O)[C@H](Cc1ccccc1)NC(=O)[C@H](CC(N)=O)NC(=O)[C@@H]1CCCN1C(=O)[C@H](CO)NC(=O)[C@H](CO)NC(=O)[C@H](Cc1c[nH]cn1)NC(=O)[C@H](CCCNC(=N)N)NC(=O)[C@H](CC(C)C)NC(=O)[C@H](Cc1ccccc1)NC(=O)[C@H](CC(N)=O)NC(=O)[C@H](C)NC(=O)[C@H](CC(C)C)NC(=O)[C@H](CCCNC(=N)N)NC(=O)[C@H](CCC(N)=O)NC(=O)[C@@H](NC(=O)[C@H](C)NC(=O)[C@@H]1CSSC[C@H](NC(=O)[C@@H](N)CCCCNC(=O)COCCOCCNC(=O)CC[C@H](NC(=O)CCCCCCCCCCCCCCCCCCC(=O)O)C(=O)O)C(=O)N[C@@H](CC(N)=O)C(=O)N[C@@H]([C@@H](C)O)C(=O)N[C@@H](C)C(=O)N[C@@H]([C@@H](C)O)C(=O)N1)[C@@H](C)O)C(=O)N1CCC[C@H]1C(=O)N[C@@H](CO)C(=O)N[C@@H](CO)C(=O)N[C@H](C(=O)N[C@@H](CC(N)=O)C(=O)N[C@H](C(=O)NCC(=O)N[C@@H](CO)C(=O)N[C@@H](CCCNC(=N)N)C(=O)N[C@H](C(=O)N[C@@H](Cc1ccc(O)cc1)C(N)=O)[C@@H](C)O)C(C)C)[C@@H](C)O
notes: also called compound 38
For the molecule B1, the 50% inhibitory concentration (IC50) in experiment [1] worked out at 0.249 nM.

B2: N^ε1-[(4S)-4-carboxy-4-[[(4S)-4-carboxy-4-(19-carboxynonadecanoylamino)butanoyl]amino]butanoyl]-[Glu14,Arg17,Pro21,Pro27,Pro34,Glu35]-h-amylin (peptide)
peptide: K([γGlu-γGlu-C20 diacid])CNTATCATQRLAEFLRHSSPNFGAIPSSTNVGPETY-NH2
modifications: disulfide 2-7; N-terminus assumed
SMILES: CC[C@H](C)[C@H](NC(=O)[C@H](C)NC(=O)CNC(=O)[C@H](Cc1ccccc1)NC(=O)[C@H](CC(N)=O)NC(=O)[C@@H]1CCCN1C(=O)[C@H](CO)NC(=O)[C@H](CO)NC(=O)[C@H](Cc1c[nH]cn1)NC(=O)[C@H](CCCNC(=N)N)NC(=O)[C@H](CC(C)C)NC(=O)[C@H](Cc1ccccc1)NC(=O)[C@H](CCC(=O)O)NC(=O)[C@H](C)NC(=O)[C@H](CC(C)C)NC(=O)[C@H](CCCNC(=N)N)NC(=O)[C@H](CCC(N)=O)NC(=O)[C@@H](NC(=O)[C@H](C)NC(=O)[C@@H]1CSSC[C@H](NC(=O)[C@@H](N)CCCCNC(=O)CC[C@H](NC(=O)CC[C@H](NC(=O)CCCCCCCCCCCCCCCCCCC(=O)O)C(=O)O)C(=O)O)C(=O)N[C@@H](CC(N)=O)C(=O)N[C@@H]([C@@H](C)O)C(=O)N[C@@H](C)C(=O)N[C@@H]([C@@H](C)O)C(=O)N1)[C@@H](C)O)C(=O)N1CCC[C@H]1C(=O)N[C@@H](CO)C(=O)N[C@@H](CO)C(=O)N[C@H](C(=O)N[C@@H](CC(N)=O)C(=O)N[C@H](C(=O)NCC(=O)N1CCC[C@H]1C(=O)N[C@@H](CCC(=O)O)C(=O)N[C@H](C(=O)N[C@@H](Cc1ccc(O)cc1)C(N)=O)[C@@H](C)O)C(C)C)[C@@H](C)O
notes: synthetic peptide amide
Consider B2, for which the “hCTR funct. EC50 (pM)” value in experiment [2] turned out to be 2360 pM.

B3: N^ε1-[2-[2-[2-[[2-[2-[2-[[(4S)-4-carboxy-4-(19-carboxynonadecanoylamino)butanoyl]amino]ethoxy]ethoxy]acetyl]amino]ethoxy]ethoxy]acetyl]-[Arg17,Pro21,Pro27,His34 … (peptide)
peptide: K([AEEA-AEEA-γGlu-C20 diacid])CNTATCATQRLANFLRHSSPNFGAIPSSTNVGHNTY-NH2
modifications: disulfide 2-7; N-terminus assumed
SMILES: CC[C@H](C)[C@H](NC(=O)[C@H](C)NC(=O)CNC(=O)[C@H](Cc1ccccc1)NC(=O)[C@H](CC(N)=O)NC(=O)[C@@H]1CCCN1C(=O)[C@H](CO)NC(=O)[C@H](CO)NC(=O)[C@H](Cc1c[nH]cn1)NC(=O)[C@H](CCCNC(=N)N)NC(=O)[C@H](CC(C)C)NC(=O)[C@H](Cc1ccccc1)NC(=O)[C@H](CC(N)=O)NC(=O)[C@H](C)NC(=O)[C@H](CC(C)C)NC(=O)[C@H](CCCNC(=N)N)NC(=O)[C@H](CCC(N)=O)NC(=O)[C@@H](NC(=O)[C@H](C)NC(=O)[C@@H]1CSSC[C@H](NC(=O)[C@@H](N)CCCCNC(=O)COCCOCCNC(=O)COCCOCCNC(=O)CC[C@H](NC(=O)CCCCCCCCCCCCCCCCCCC(=O)O)C(=O)O)C(=O)N[C@@H](CC(N)=O)C(=O)N[C@@H]([C@@H](C)O)C(=O)N[C@@H](C)C(=O)N[C@@H]([C@@H](C)O)C(=O)N1)[C@@H](C)O)C(=O)N1CCC[C@H]1C(=O)N[C@@H](CO)C(=O)N[C@@H](CO)C(=O)N[C@H](C(=O)N[C@@H](CC(N)=O)C(=O)N[C@H](C(=O)NCC(=O)N[C@@H](Cc1c[nH]cn1)C(=O)N[C@@H](CC(N)=O)C(=O)N[C@H](C(=O)N[C@@H](Cc1ccc(O)cc1)C(N)=O)[C@@H](C)O)C(C)C)[C@@H](C)O
notes: synthetic peptide amide; also called compound 97
As to B3, in experiment [2], the “hCTR funct. EC50 (pM)” value came to 11800 pM.

B4: N^ε1-[(4S)-4-carboxy-4-(19-carboxynonadecanoylamino)butanoyl]-[Glu14,Arg17,Pro21,Pro27,Pro34,Glu35]-h-amylin (peptide)
peptide: K([γGlu-C20 diacid])CNTATCATQRLAEFLRHSSPNFGAIPSSTNVGPETY-NH2
modifications: disulfide 2-7; N-terminus assumed
SMILES: CC[C@H](C)[C@H](NC(=O)[C@H](C)NC(=O)CNC(=O)[C@H](Cc1ccccc1)NC(=O)[C@H](CC(N)=O)NC(=O)[C@@H]1CCCN1C(=O)[C@H](CO)NC(=O)[C@H](CO)NC(=O)[C@H](Cc1c[nH]cn1)NC(=O)[C@H](CCCNC(=N)N)NC(=O)[C@H](CC(C)C)NC(=O)[C@H](Cc1ccccc1)NC(=O)[C@H](CCC(=O)O)NC(=O)[C@H](C)NC(=O)[C@H](CC(C)C)NC(=O)[C@H](CCCNC(=N)N)NC(=O)[C@H](CCC(N)=O)NC(=O)[C@@H](NC(=O)[C@H](C)NC(=O)[C@@H]1CSSC[C@H](NC(=O)[C@@H](N)CCCCNC(=O)CC[C@H](NC(=O)CCCCCCCCCCCCCCCCCCC(=O)O)C(=O)O)C(=O)N[C@@H](CC(N)=O)C(=O)N[C@@H]([C@@H](C)O)C(=O)N[C@@H](C)C(=O)N[C@@H]([C@@H](C)O)C(=O)N1)[C@@H](C)O)C(=O)N1CCC[C@H]1C(=O)N[C@@H](CO)C(=O)N[C@@H](CO)C(=O)N[C@H](C(=O)N[C@@H](CC(N)=O)C(=O)N[C@H](C(=O)NCC(=O)N1CCC[C@H]1C(=O)N[C@@H](CCC(=O)O)C(=O)N[C@H](C(=O)N[C@@H](Cc1ccc(O)cc1)C(N)=O)[C@@H](C)O)C(C)C)[C@@H](C)O
As for B4, the “Ratio hCT/hAmylin binding” value in experiment [3] was found to be 13.3. Moreover, in experiment [4], the IC50 is 1.86 nM.

By IC50 is commonly meant the concentration at which inhibition is half-maximal.
